Here are results for five molecules from article PMC7589778 (Viruses, 2020).

First the molecules themselves.
B1: C-terminal domain of HIV-1 integrase starting at residue 213, C-terminal His-tag (domain or fragment)
chain: LQKQITKIQNFRVYYRDSRDPVWKGPAKLLWKGEGAVVIQDNSDIKVVPRRKAKIIRDYGKQMAGDDCVASRQDED
modifications: homodimer; mature mitochondrial form (19 specific + 576 shared residues); HA-tag left out
B2: HIV-1 integrase with a deletion of the NTD, C-terminal His-tag (domain or fragment)
chain: MHGQVDCSPGIWQLDCTHLEGKVILVAVHVASGYIEAEVIPAETGQETAYFLLKLAGRWPVKTVHTDNGSNFTSTTVKAACWWAGIKQEFGIPYNPQSQGVIESMNKELKKIIGQVRDQAEHLKTAVQMAVFIHNFKRKGGIGGYSAGERIVDIIATDIQTKELQKQITKIQNFRVYYRDSRDPVWKGPAKLLWKGEGAVVIQDNSDIKVVPRRKAKIIRDYGKQMAGDDCVASRQDED
modifications: homodimer; mature mitochondrial form (19 specific + 576 shared residues); HA-tag left out
B3: IN-CTD222 with a deletion of 15 C-terminal residues, C-terminal His-tag (domain or fragment)
chain: NFRVYYRDSRDPVWKGPAKLLWKGEGAVVIQDNSDIKVVPRRKAKIIRDYGK
notes: source: E. coli BL21(DE3), purified (Ni-NTA, Mono S); not shown: His6, C-terminal, kept
B4: HIV-1 integrase catalytic core domain (deletion of the NTD and the CTD), C-terminal His-tag (domain or fragment)
chain: MHGQVDCSPGIWQLDCTHLEGKVILVAVHVASGYIEAEVIPAETGQETAYFLLKLAGRWPVKTVHTDNGSNFTSTTVKAACWWAGIKQEFGIPYNPQSQGVIESMNKELKKIIGQVRDQAEHLKTAVQMAVFIHNFKRKGGIGGYSAGERIVDIIATDIQTKE
modifications: homodimer; mature mitochondrial form (19 specific + 576 shared residues); HA-tag left out
B5: Human mitochondrial LysRS with a C-terminal HA-tag (enzyme)
chain: not shown
modifications: homodimer; mature mitochondrial form (19 specific + 576 shared residues); HA-tag left out

Experiment in all cases: AlphaScreen or HTRF
Holding throughout (settings): both partners purified

Assay [1] concerns the target Human mitochondrial LysRS with a C-terminal HA-tag (human, UniProt Q15046-2 1-625).
In assay [2] the target is B5.
The target of assay [3] is T1, Full-length integrase from HIV-1 with a C-terminal His-tag (HIV-1).
T1 construct: source: E. coli BL21(DE3), purified (Ni-NTA, Mono S); not shown: His6, C-terminal, kept

Consider B1, for which the affinity in assay [1], expressed as Kd, was 190 nM. In the case of B2, in assay [1], the Kd is 3 nM. Consider B3, for which, in assay [2], the Kd is 142 nM.

On to B4, for which, in assay [1], the Kd was > 400 nM. In the case of B5, in assay [3], binding was put at a Kd of 2.6 nM.
